Reference: US6653127B1, “Single-chain recombinant complexes of hepatitis C virus NS3 protease and NS4A cofactor peptide” (Schering Corporation, priority 1997, dated 2003)

How the values were obtained:
[1] = tested on: double stranded RNA substrate; test: Nucleic acid unwinding activity, scintillation proximity assay; format: biochemical
Method: The newly engineered single-chain recombinant His-NS4A21-32-GSGS-NS33-631 (SEQ ID NO: 4) was assayed for nucleic acid unwinding activity using a scintillation proximity assay (SPA, Amersham Life Science Inc., Arlington Height, Ill.). The unwinding activity present in this covalent His-NS4A21-32-GSGS-NS33-631 complex was compared with that of the full length His-NS31-631-NS4A1-54 complex under their corresponding optimal buffer conditions. The double stranded RNA substrate (Oligos, Etc., Inc. Wilsonville, Oreg.) used in the assay contained a template 5′-GCUCGCCCGGGGAUCCUCUAGGAAUACACGUUCGAU-3′ (SEQ ID NO: 121) annealed to a primer 5′-CUAGAGGAUCCCCGGGCGAGCCCUAUAGUGAGUCGU-3′ (complementary sequences of the template and the primer are underlined). This substrate is end-labeled with ^33P using T4 polynucleotide kinase.
The assay conditions for the covalent His-NS4A21-32-GSGS-NS33-631 complex were 100 mM MOPS [pH 7.0], 0.5 mM MgCl2, 2 mM ATP, 0.5 mM DTT, […] BSA, 2% dimethylsulfoxide (DMSO) and 1 U RNase inhibitor (5 prime→3 prime, Inc., Boulder, Colo.). For the full length His-NS31-631/NS4A1-54 complex, the assay conditions were 100 mM PIPES [pH 6.0], 1 mM MgCl2, 2 mM ATP, 0.6 mM DTT, […] BSA and 1 U RNase inhibitor. In both reactions, 0.5 nM double stranded RNA substrate in a final volume of […] was used. The reaction was carried out at 37 ∞C. for 1 h and terminated by an addition of […] of 0.5 M EDTA. The released primer was captured using […] of 100 nM biotinylated capture oligomer (5′-biotin-GCT-CGC-CCG-GGG-ATC-CTC-TAG-3′) (Gibco/BRL, Grand Island, N.Y.) (SEQ ID NO: 123) in 2×hybridization buffer (40 mM HEPES [pH 7.3], 2M NaCl, 2 mg/ml BSA) at 37 ∞C. for 1 h. The primer-oligomer complex was retained by Streptavidin coated SPA beads (SPA, Amersham Life Science Inc., Arlington Height, Ill.), filtered and washed thoroughly with wash buffer (20 mM HEPES [pH 7.3], 15 mM NaCl, 1.5 mM sodium citrate and 0.05% SDS). The amount of the released labeled primer was quantified using a TopCount reader (Packard A991200, Meriden, Conn.).

[2] = ATPase activity, [a-32P]ATP hydrolysis by thin layer chromatography; format: biochemical
Method: ATPase activity of the covalent His-NS4A21-32-GSGS-NS33-631 complex (SEQ ID NO: 4) was monitored by direct measurement of [a-^32P]ATP hydrolysis using thin layer chromatography. The enzyme was incubated with 1 mM ATP mixed with [a-^32P]ATP (3000 Ci/mmol, approximately 0.5 mCi per reaction) in a reaction buffer containing 50 mM HEPES [pH 7.3], 10 mM KCl, 0.5 mM DTT, […] bovine serum albumin, fraction V (BSA), 1 mM MgCl2 in the presence or absence of 1 mM polyuridylic acid (poly U) (Pharmacia, Piscataway, N.J.) in a final volume of […]. The reaction was carried out at 37 ∞C. for 1 h and terminated by an addition of […] of 0.5 M EDTA. Half a microliter of the reaction mix was spotted onto a polyethyleneimine-cellulose sheet (SA Scientific Adsorbents Inc., Atlanta, Ga.) and developed by ascending chromatography in 0.375 M potassium phosphate buffer [pH 3.5]. The cellulose sheet was dried and quantified with a Storm 860 PhosphoImager (Molecular Dynamics, Sunnyvale, Calif.).

[3] = target: T1, helicase domain of the NS3 protein (Hepatitis C virus genotype 1b, UniProt P26663, A1092G/F1173S/K1113A/P1112Q); test: Autocleavage observed during purification; design: species or system HCV
T1 construct: N-terminal end of the NS3 protease (NS3 amino acids 3-631) via the linker GSGS; histidine tag followed by a thrombin site (N); made in house; host or cells: E. coli BL21(DE3)
Text: Also provided are NS4A-tethered forms of NS3 full-length domain. […] To prevent autocleavage of the full-length covalent complexes, the catalytic serine residue at position 139 is mutated to alanine. The amino acid sequence of one such embodiment is defined by SEQ ID NO: 15. The mutation of the full length constructs at position 139 can also be made in the NS4A-tethered forms of the NS3 catalytic domain, and can be made in combination with any of the aforementioned mutations to increase solubility and stability while preventing autocleavage. Representative embodiments are set forth in SEQ ID NOs: 5-8, 15-18 and 20.

B1: His-NS4A21-32-GSGS-NS33-631: NS4A 21-32 tethered by GSGS to full-length NS3 residues 3-631, His tag; printed SEQ ID NO: 4 (protein)
chain: MGSSHHHHHHSSGLVPRGSHMGSVVIVGRIILSGSGSITAYSQQTRGLLGCKKTSLTGRDKNQVEGEVQVVSTATQSFLATCVNGVCWTVYHGAGSKTLAGPKGPITQMYTNVDQDLVGWQAPPGARSLTPCTCGSSDLYLVTRHADVIPVRRRGDSRGSLLSPRPVSYLKGSSGGPLLCPSGHAVGIFRAAVCTRGVAKAVDFVPVESMETTMRS
modifications: His tag
[1]
  fold less complex required for similar percentage of unwound products vs full length His-NS31-631/NS4A1-54: 10 fold
[1]; FIG. 6, 37 C, 1 h, 0.5 nM dsRNA
  nucleic acid unwinding activity: proportional to the concentration of enzyme
[1]; linear range of the assay, 1-10 pM enzyme
  product released, fold more than equivalent concentration of full length His-NS3/NS4A1-54 complex: 5-6 fold
[2]; 1 mM poly U, all enzyme concentrations examined
  increase of ATP hydrolysis in the presence of poly U: 8-13 fold
[2]; FIG. 7, 1 mM ATP, 37 C, 1 h
  ATPase activity: poly U dependent ATPase activity which was proportional to the concentration of the enzyme
[2]; no poly U
  ATP hydrolysis in the absence of poly U: minimal
[3]
  autocleavage in the helicase domain during purification: a considerable amount of autocleavage
